Measurements reported in patent US20200308277A1.

Columns and labels:
huTIM-3/his (human) [1] = target: huTIM-3/his (human) (UniProt Q8TDQ0); experiment: SPR (Biacore) competition; 2nd antibody injection after 1st antibody huIgG1 (competitor)
huTIM-3/his (human) [2] = target: huTIM-3/his (human) (UniProt Q8TDQ0); experiment: SPR (Biacore) competition; 2nd antibody injection after 1st antibody ABTIM3-hum11 (competitor)
huTIM-3/his (human) [3] = target: huTIM-3/his (human) (UniProt Q8TDQ0); experiment: SPR (Biacore) competition, hTIM-3/his captured by anti-His antibody; 1st antibody injection
huTIM-3/his (human) [4] = target: huTIM-3/his (human) (UniProt Q8TDQ0); experiment: SPR (Biacore) competition; 2nd antibody injection after 1st antibody ABTIM3-hum21 (competitor)
huTIM-3/his (human) [5] = target: huTIM-3/his (human) (UniProt Q8TDQ0); experiment: SPR (Biacore) competition; 2nd antibody injection after 1st antibody ABTIM3-hum03 (competitor)

huTIM-3/his (human), sequence (Q8TDQ0 22-202 limits assumed): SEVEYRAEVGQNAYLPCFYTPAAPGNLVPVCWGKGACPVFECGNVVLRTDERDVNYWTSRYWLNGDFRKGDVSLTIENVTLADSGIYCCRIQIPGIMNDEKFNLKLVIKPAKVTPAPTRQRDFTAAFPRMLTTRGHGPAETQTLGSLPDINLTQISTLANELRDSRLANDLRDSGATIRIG

Q: Which results are given for huIgG1 (antibody)?
A: change in RU (huTIM-3/his (human) [1]): 3.6 RU; change in RU (huTIM-3/his (human) [2]): 3.8 RU; change in RU (huTIM-3/his (human) [3]): 0.27 RU; change in RU (huTIM-3/his (human) [4]): 4.5 RU; change in RU (huTIM-3/his (human) [5]): 4.5 RU
